Legend:
Test in all cases: native gel or EMSA; blue native gel electrophoresis (NativePAGE Novex 3-12% Bis-Tris), 225 ng purified recombinant protein in BRB80-DTT buffer plus 5% glycerol, silver-stained; oligomer size read from band mobility
[1] = target: GST
[2] = target: GST-fused TbSpef1 (full-length TbSpef1 with N-terminal GST) (T. brucei)
[3] = target: KIN13-5 CC-deletion mutant (a.a. 1-642), hexahistidine-tagged (T. brucei)
[4] = target: KIN13-5 SAM domain-deletion mutant (a.a. 71-719), hexahistidine-tagged (T. brucei)
[5] = target: motor domain of KIN13-5 (a.a. 170-536), hexahistidine-tagged (T. brucei)
[6] = target: recombinant hexahistidine-tagged KIN13-1 (T. brucei)
[7] = target: recombinant hexahistidine-tagged full-length KIN13-5 (a.a. 1-719) (T. brucei)
[8] = target: the molecule itself

## GST (natural protein)
[1]
  stoichiometry N: 2

## GST-fused TbSpef1 (full-length TbSpef1 with N-terminal GST) (natural protein)
[2]
  stoichiometry N: 4

## KIN13-5 CC-deletion mutant (a.a. 1-642), hexahistidine-tagged (domain or fragment)
[3]
  stoichiometry N: 2

## KIN13-5 SAM domain-deletion mutant (a.a. 71-719), hexahistidine-tagged (domain or fragment)
[4]
  stoichiometry N: 4

## motor domain of KIN13-5 (a.a. 170-536), hexahistidine-tagged (domain or fragment)
[5]
  stoichiometry N: 4

## recombinant hexahistidine-tagged KIN13-1 (natural protein)
[6]
  stoichiometry N: 2

## recombinant hexahistidine-tagged full-length KIN13-5 (a.a. 1-719) (natural protein)
[7]
  stoichiometry N: 8

B1: recombinant hexahistidine-tagged KIN-G (natural protein)
chain: MAKPLSGKAAPKNISVFLRVRPPVPRELKGGTFNNLVCDPSDPQRVTITRGGSARKGTKSFLFNRVFDPECTQQTIYNEVARGAVDAAFDGQHGVLFVYGQTGSGKTFTISNNDPEKPGVLQQSLRDIWDRFQADTEYDYSCTVSYVQLYNEMLTDLLDPQGGRVRIQLGPEGRGDVVLVTEASGASIERKVESYEDCLKYFYEGMDRKEMTSTKMNNTSSRSHTVFNFNLTRSAKVKTVDLSSAKANNEPVIALQGRLVVCDLAGSERASRTNAEGKTLDEATHINGSLLVLGKVVAALTESGSQHAPFRESKLTRILQYSLLGNGNTSIVVNCSPCDDSTEETLGAIMFGQRAIQIKQDAKRHEILDYKALYYQLLADLDSKNDRTLETALSEERTAYEDRIRVLEERIKILTSENDMLRRESSQLGGTGPVSGTSTASGAAAAAVAMGGDDANDWRSLTMKMRRAIEKLDADLKRTDKERVELAQFLALEKNKVNVLAQKLRAESLKHIMENKELTQRVTELSIDNAKLKGTDYISFQPSAACEDALPLSLDSPRRGTPSSGLSQSINVGDAYLQEQLDKANRQLRVLNEERVELIVYQMMASKAIRLLHAEKTSLANHLEKLKA
[8]
  stoichiometry N: ~4
